{"source": "patent US8673850B2", "about": "“PCSK9 inhibitors and methods of use thereof” (Institut de Recherches Cliniques de Montreal, priority 2008, dated 2014)", "molecules": {"B1": {"name": "AnxA1-(His)6: purified His-tagged Annexin A1 purchased from EMD biosciences (protein)", "chain": "MAMVSEFLKQAWFIENEEQEYVQTVKSSKGGPGSAVSPYPTFNPSSDVAALHKAIMVKGVDEATIIDILTKRNNAQRQQIKAAYLQETGKPLDETLKKALTGHLEEVVLALLKTPAQFDADELRAAMKGLGTDEDTLIEILASRTNKEIRDINRVYREELKRDLAKDITSDTSGDFRNALLSLAKGDRSEDFGVNEDLADSDARALYEAGERRKGTDVNVFNTILTTRSYPQLRRVFQKYTKYSKHDMNKVLDLELKGDIEKCLTAIVKCATSKPAFFAEKLHQAMKGVGTRHKALIRIMVSRSEIDMNDIKAFYQKMYGISLCQAILDETKGDYEKILVALCGGNHHHHHH"}, "B2": {"name": "K28S+D34N+E36S: AnxA2 with Lys28, Asp34, Glu36 replaced by AnxA1 Ser, Asn, Ser (protein)", "chain": "MSTVHEILCKLSLEGDHSTPPSAYGSVSAYTNFNASRDALNIETAIKTKGVDEVTIVNILTNRSNAQRQDIAFAYQRRTKKELASALKSALSGHLETVILGLLKTPAQYDASELKASMKGLGTDEDSLIEIICSRTNQELQEINRVYKEMYKTDLEKDIISDTSGDFRKLMVALAKGRRAEDGSVIDYELIDQDARDLYDAGVKRKGTDVPKWISIMTERSVPHLQKVFDRYKSYSPYDMLESIRKEVKGDLENAFLNLVQCIQNKPLYFADRLYDSMKGKGTRDKVLIRIMVSRSEVDMLKIRSEFKRKYGKSLYYYIQQDTKGDYQKALLYLCGGDD"}, "B3": {"name": "R37S+E43H+K47M: AnxA2 with Arg37, Glu43, Lys47 replaced by AnxA1 Ser, His, Met (protein)", "chain": "B2 chain with S28K, N34D, S36E, R37S, E43H, K47M"}, "B4": {"name": "Δ25-36: AnxA2 deletion of aa 25-36 (protein)", "chain": "MSTVHEILCKLSLEGDHSTPPSAYRDALNIETAIKTKGVDEVTIVNILTNRSNAQRQDIAFAYQRRTKKELASALKSALSGHLETVILGLLKTPAQYDASELKASMKGLGTDEDSLIEIICSRTNQELQEINRVYKEMYKTDLEKDIISDTSGDFRKLMVALAKGRRAEDGSVIDYELIDQDARDLYDAGVKRKGTDVPKWISIMTERSVPHLQKVFDRYKSYSPYDMLESIRKEVKGDLENAFLNLVQCIQNKPLYFADRLYDSMKGKGTRDKVLIRIMVSRSEVDMLKIRSEFKRKYGKSLYYYIQQDTKGDYQKALLYLCGGDDYPYDVPDYA"}, "B5": {"name": "SW49-75: AnxA2 segment aa 49-75 swapped with AnxA1 aa 58-84 (protein)", "chain": "MSTVHEILCKLSLEGDHSTPPSAYGSVKAYTNFDAERDALNIETAIKTKGVDEATIIDILTKRNNAQRQQIKAAYQRRTKKELASALKSALSGHLETVILGLLKTPAQYDASELKASMKGLGTDEDSLIEIICSRTNQELQEINRVYKEMYKTDLEKDIISDTSGDFRKLMVALAKGRRAEDGSVIDYELIDQDARDLYDAGVKRKGTDVPKWISIMTERSVPHLQKVFDRYKSYSPYDMLESIRKEVKGDLENAFLNLVQCIQNKPLYFADRLYDSMKGKGTRDKVLIRIMVSRSEVDMLKIRSEFKRKYGKSLYYYIQQDTKGDYQKALLYLCGGDDYPYDVPDYA"}, "B6": {"name": "Δ102-108: AnxA2 deletion of aa 102-108 (protein)", "chain": "MSTVHEILCKLSLEGDHSTPPSAYGSVKAYTNFDAERDALNIETAIKTKGVDEVTIVNILTNRSNAQRQDIAFAYQRRTKKELASALKSALSGHLETVILGYDASELKASMKGLGTDEDSLIEIICSRTNQELQEINRVYKEMYKTDLEKDIISDTSGDFRKLMVALAKGRRAEDGSVIDYELIDQDARDLYDAGVKRKGTDVPKWISIMTERSVPHLQKVFDRYKSYSPYDMLESIRKEVKGDLENAFLNLVQCIQNKPLYFADRLYDSMKGKGTRDKVLIRIMVSRSEVDMLKIRSEFKRKYGKSLYYYIQQDTKGDYQKALLYLCGGDDYPYDVPDYA"}, "B7": {"name": "80KKELA>GKPLD: AnxA2 with 80KKELA84 replaced by AnxA1 loop sequence 89GKPLD93 (protein, UniProt P07355 2-339, looked up, variant K80G E82P A84D)", "Annexin A2": "STVHEILCKLSLEGDHSTPPSAYGSVKAYTNFDAERDALNIETAIKTKGVDEVTIVNILTNRSNAQRQDIAFAYQRRTGKPLDSALKSALSGHLETVILGLLKTPAQYDASELKASMKGLGTDEDSLIEIICSRTNQELQEINRVYKEMYKTDLEKDIISDTSGDFRKLMVALAKGRRAEDGSVIDYELIDQDARDLYDAGVKRKGTDVPKWISIMTERSVPHLQKVFDRYKSYSPYDMLESIRKEVKGDLENAFLNLVQCIQNKPLYFADRLYDSMKGKGTRDKVLIRIMVSRSEVDMLKIRSEFKRKYGKSLYYYIQQDTKGDYQKALLYLCGGDD"}, "B8": {"name": "^77AATAK^81: AnxA2 point mutant 77RRTKK81 to AATAK (protein)", "chain": "MSTVHEILCKLSLEGDHSTPPSAYGSVKAYTNFDAERDALNIETAIKTKGVDEVTIVNILTNRSNAQRQDIAFAYQAATAKELASALKSALSGHLETVILGLLKTPAQYDASELKASMKGLGTDEDSLIEIICSRTNQELQEINRVYKEMYKTDLEKDIISDTSGDFRKLMVALAKGRRAEDGSVIDYELIDQDARDLYDAGVKRKGTDVPKWISIMTERSVPHLQKVFDRYKSYSPYDMLESIRKEVKGDLENAFLNLVQCIQNKPLYFADRLYDSMKGKGTRDKVLIRIMVSRSEVDMLKIRSEFKRKYGKSLYYYIQQDTKGDYQKALLYLCGGDDYPYDVPDYA"}, "B9": {"name": "77AATAAELASALA88: AnxA2 point mutant 77…88 to AATAAELASALA (protein)", "chain": "B8 chain with K81A, K88A", "notes": "AnxA2 point mutant 77…88 to …"}, "B10": {"name": "77AATAA81: AnxA2 point mutant 77RRTKK81 to AATAA (protein)", "chain": "B8 chain with K81A"}}, "note": "Residue numbers refer to the chain shown, from its start. In names and notes the source's numbering stands."}
{"target": "T1, PCSK9-V5 (Homo sapiens, UniProt Q8NBP7)", "T1 sequence (Q8NBP7 153-692)": "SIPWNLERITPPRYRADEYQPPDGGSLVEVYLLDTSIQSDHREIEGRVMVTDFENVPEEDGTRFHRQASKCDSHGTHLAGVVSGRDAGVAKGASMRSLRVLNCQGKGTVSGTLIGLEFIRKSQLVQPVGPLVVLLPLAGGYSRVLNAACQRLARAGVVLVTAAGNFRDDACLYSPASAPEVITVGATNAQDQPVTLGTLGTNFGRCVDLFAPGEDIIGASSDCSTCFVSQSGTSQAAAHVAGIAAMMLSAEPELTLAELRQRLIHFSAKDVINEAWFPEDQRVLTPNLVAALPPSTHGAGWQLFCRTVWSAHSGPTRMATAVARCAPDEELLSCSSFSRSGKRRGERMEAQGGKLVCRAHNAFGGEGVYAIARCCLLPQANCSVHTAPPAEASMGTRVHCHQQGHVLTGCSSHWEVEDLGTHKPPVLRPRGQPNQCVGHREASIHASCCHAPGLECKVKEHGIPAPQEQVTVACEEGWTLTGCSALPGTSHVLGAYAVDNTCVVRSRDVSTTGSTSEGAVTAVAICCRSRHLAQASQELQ", "T1 sequence (Q8NBP7 31-152 partner limits assumed)": "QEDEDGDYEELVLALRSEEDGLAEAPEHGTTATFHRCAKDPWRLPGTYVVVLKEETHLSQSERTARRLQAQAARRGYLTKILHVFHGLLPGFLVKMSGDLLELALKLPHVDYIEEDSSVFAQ", "test": "Hexa-His pull-down assay", "format": "binding", "design": "made in house; host or cells: CHO-K1 cells (conditioned medium, not purified)", "conditions": "20 μg protein immobilized on cobalt chelate resin", "method": "20 μg of purified AnxA2-(His)6 or AnxA1-(His)6 or no proteins (for negative control) were immobilized onto a cobalt chelate resin (Thermo Scientific). The resin was then washed several times with 40 mM immidazole and incubated overnight at 4° C. with 800 μl of conditioned media from PCSK9-V5-transfected CHO-K1 cells containing 40 mM immidazole. The resin was then washed several times with immidazole (40 mM), heated in reducing Laemmli sample buffer and centrifuged. Supernatants were analyzed by Western blot as described above using the anti-V5-HRP or anti-His-HRP antibodies."}
{"molecule": "B1", "PCSK9-V5 bound in pull-down": "does not"}
{"target": "T1, PCSK9-V5", "test": "Far Western blot with PCSK9-V5 conditioned media", "format": "binding", "design": "made in house; host or cells: CHO-K1 cells (conditioned medium, not purified)", "conditions": "lysates of cells overexpressing the construct", "method": "Lysates (20 to 30 μg protein), media or purified AnxA2-(His)6 were heated in reducing or non-reducing Laemmli sample buffer, resolved by SDS-PAGE on 8% glycine gels and electro-transferred onto nitrocellulose membranes (GE Healthcare). Following 1 h incubation in 5% skim milk in Tris-Buffered Saline-0.1% Tween (TBST), membranes where incubated with conditioned media of CHO-K1 cells overexpressing either an empty vector (pIRES-V5), PC5A-V5, CHRD-V5, pIRES-D374Y, PCSK9-V5 or its V5-tagged mutants, or incubated with purified AnxA2-(His)6 for 3 h at room temperature. […] For competition experiments, 10 μg of His-tagged PCSK9 or CHRD were added to the PCSK9-V5 media before Far Western blotting. For PCSK9 binding requirements with the ˜33 kDa protein, 1M NaCl, 10 mg/ml heparin, 1M NaCl+10 mg/ml heparin, or 100 mM EDTA were added to the PCSK9-V5 conditioned media used for Far Western blotting.\nWild type human Annexin A2 (AnxA2) (ATCC #MGC-2257) and Annexin A1 (AnxA1) (ATCC #MGC-5095) were purchased from ATCC and subcloned into NheI/SacI digested pIRES2-EGFP vector. An HA epitope ([…]) was fused by PCR mutagenesis at the C-terminus of both AnxA1 and AnxA2. Two-steps PCRs were performed on AnxA2 cDNA to introduce point mutations (N62Q; S64A; K28S+D34N+E36S; R37S+E43H+K47M; 77RRTKK (SEQ ID NO: 26)>AATAK (SEQ ID NO: 27); ^77RRTKK (SEQ ID NO: 26)>AATAA (SEQ ID NO: 28); ^77RRTKKELASALK (SEQ ID NO: 29)>^77AATAAELASALA (SEQ ID NO: 30); 80KKELA (SEQ ID NO: 31)>GKPLD (SEQ ID NO: 32)), or amino acid (aa) deletions (Δ2-24, aa 2-24; ΔR1, aa 37-108; ΔR2, aa 109-192; ΔR3, aa 193-268; ΔR4, aa 269-339; Δ25-36, aa 25-36; Δ37-48, aa 37-48; Δ49-61, aa 49-61; Δ62-75, aa 62-75; Δ37-66, aa 37-66; Δ74-88, aa 74-88; Δ82-88, aa 82-88; Δ89-101, aa 89-101; Δ102-108, aa 102-108) into pIRES2-AnxA2-EGFP vector (see Table 3 above). In addition, using PCR, the AnxA2 segment aa 49-75 was swapped with the corresponding AnxA1 segment aa 58-84 [AnxA1 (aa 58-84)>AnxA2 (aa 49-75)]. Similar swaps were performed for the corresponding AnxA2 sequence with AnxA1 (AnxA1>AnxA2: aa 25-27; aa 28-30; aa 31-33; aa 34-36; aa 37-39; aa 40-42; aa 43-45; aa 46-48; aa 49-75; aa 49-61; aa 62-75). All final cDNA constructs were verified by DNA sequencing."}
{"molecule": "B2", "PCSK9-V5 binding by Far Western blot": "slightly reduced the ability of PCSK9 to bind AnxA2"}
{"molecule": "B3", "PCSK9-V5 binding by Far Western blot": "significant decrease of binding"}
{"molecule": "B4", "PCSK9-V5 binding by Far Western blot": "abolished PCSK9 binding"}
{"molecule": "B5", "PCSK9-V5 binding by Far Western blot": "abolished"}
{"molecule": "B6", "PCSK9-V5 binding by Far Western blot": "abolished PCSK9 binding"}
{"molecule": "B7", "PCSK9-V5 binding by Far Western blot": "had no appreciable effect on PCSK9 binding"}
{"molecule": "B8", "PCSK9-V5 binding by Far Western blot": "is critical for the AnxA2-PCSK9 binding"}
{"molecule": "B9", "PCSK9-V5 binding by Far Western blot": "abolished binding of AnxA2 to PCSK9"}
{"molecule": "B10", "PCSK9-V5 binding by Far Western blot": "is critical for the AnxA2-PCSK9 binding"}
{"target": "PCSK9-LDLR interaction (Homo sapiens, UniProt Q8NBP7)", "sequence (Q8NBP7 153-692)": "as the sequence (Q8NBP7 153-692) above", "sequence (Q8NBP7 31-152 partner limits assumed)": "as the sequence (Q8NBP7 31-152 partner limits assumed) above", "test": "AlphaScreen PCSK9-LDLR interaction assay", "format": "binding", "conditions": "not given", "method": "(§1) AlphaScreen® (Perkin Elmer) streptavidin donor beads were coated with purified biotin-conjugated PCSK9 and AlphaScreen® nickel chelate acceptor beads were coated with purified His6-conjugated LDLR ectodomain. Competition in the AlphaScreen® PCSK9-LDLR interaction assay was measured, in the presence of increasing concentrations of AnxA2-derived peptides, as a reduction of fluorescence."}
{"molecule": "peptide extending from amino acid 49 to 97: shorter AnxA2-derived peptide extending from amino acid 49 to 97 (KGVDEVTIVNILTNRSNAQRQDIAFAYQRRTKKELASALKSALSGHLET; HOMO SAPIENS)", "inhibitory activity on the PCSK9-LDLR ectodomain interaction": "inhibits the interaction between PCSK9 and the ectodomain of LDLR however to a lesser extent"}
{"target": "PCSK9-LDLR interaction (Homo sapiens, UniProt Q8NBP7)", "test": "AlphaScreen PCSK9-LDLR interaction assay", "format": "binding", "conditions": "10 uM (not shown)", "method": "as §1"}
{"molecule": "GSVKAYTNFDAERDALNIETAIKTKGVDEVTIVNILTNRSNAQRQDIAFAYQRRTKKELASALKSALSGHLET [No 896970, 73-mer AnxA2 R1 peptide extending from amino acids 25 to 97]", "inhibition of the PCSK9-LDLR interaction": "up to 90%"}
